The experiment addresses T1, cytochrome P450 CYP124 from Mycobacterium tuberculosis (Mycobacterium tuberculosis, UniProt P9WPP3 1-428).
T1 sequence: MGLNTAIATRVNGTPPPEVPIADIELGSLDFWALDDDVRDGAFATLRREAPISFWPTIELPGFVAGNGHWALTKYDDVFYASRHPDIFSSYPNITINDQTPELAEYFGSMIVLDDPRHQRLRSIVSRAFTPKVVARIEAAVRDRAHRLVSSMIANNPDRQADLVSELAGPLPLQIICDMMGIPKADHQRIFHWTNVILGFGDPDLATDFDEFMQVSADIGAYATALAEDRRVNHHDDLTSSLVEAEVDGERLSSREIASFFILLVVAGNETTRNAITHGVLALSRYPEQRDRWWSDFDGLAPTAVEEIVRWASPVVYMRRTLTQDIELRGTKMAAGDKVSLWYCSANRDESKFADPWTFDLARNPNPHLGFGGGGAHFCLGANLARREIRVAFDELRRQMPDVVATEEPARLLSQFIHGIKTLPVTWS
The experiment can be described thus: ITC.

For one molecule, Kd results are on record in doi:10.1101/2020.10.27.356691 (bioRxiv, 2020).

B1: rubredoxin B (RubB) from Mycobacterium tuberculosis, wild type (natural protein)
chain: MNDYKLFRCIQCGFEYDEALGWPEDGIAAGTRWDDIPDDWSCPDCGAAKSDFEMVEVARS
As to B1, the Kd (as a rule, the free concentration of one partner at which half of the binding sites on the other are occupied at equilibrium, for simple one-to-one binding) stood at 12.8 µM.
